Experiment [1] addresses T1, recombinant human IL-2 receptor beta containing a His-tag and Avi-tag (human, UniProt P14784 27-239).
T1 construct: Bought; attached to the SAX2 biosensor; also called CD122; IL-2R β; not shown: His-tag and Avi-tag
T1 sequence (looked up): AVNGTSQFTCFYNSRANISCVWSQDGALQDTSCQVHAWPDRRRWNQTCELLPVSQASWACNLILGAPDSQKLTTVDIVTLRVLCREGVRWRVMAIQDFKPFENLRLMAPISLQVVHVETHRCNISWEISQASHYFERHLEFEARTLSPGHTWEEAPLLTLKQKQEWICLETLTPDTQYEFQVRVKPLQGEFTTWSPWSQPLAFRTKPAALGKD
Kind of experiment: BLI (Octet R8), receptor on SAX2 sensor. Summed up:
(§1)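 Receptor immobilized on SAX2 biosensors; analytes (intact or MMP2-cleaved activatable IL-2 constructs) started at 300 nM and serially diluted in Kinetic buffer or PBS with 0.02% Tween 20 and 0.1% BSA. Binding constants measured by biolayer interferometry; sensors regenerated with 10 mM glycine pH 2.7 between runs.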
On the technique in general: Biolayer interferometry detects binding as a change in optical thickness at a sensor tip.

The target in experiment [2] is T1, recombinant human IL-2 receptor beta …. Description: BLI (Octet R8), receptor on SAX2 sensor; construct CMP-167, intact (no MMP2). On the procedure:
(§2) Bilayer interferometry (BLI) assays were used to measure the binding constants between activatable IL-2 polypeptides (and activated versions thereof) to IL-2 receptor subunits or receptor complexes. BLI assays were conducted on an Octet® R8 instrument. Assay plates were 96 well, polypropylene, F-bottom (chimney well), black microplates (Greiner Bio-one, Cat. No: 655209). The biosensors were Octet® SAX2 (Sartorius, Cat. No: 18-5136). The assay buffer was 1X Kinetic Buffer (Sartorius, Cat. no: 18-5136) or Phosphate Buffered Saline (PBS) that contained 0.02% (v: v) Tween 20 (Polysorbate 20) and 0.1% (w/v) bovine serum albumin (BSA). The sensor was regenerated between measurements in 10 mM glycine pH 2.7 buffer.
(§3) Sensor attached receptors were either recombinant human IL-2 receptor beta containing a His-tag and Avi-tag™ (R&D Systems™) or an Avi-tag™ Fc with human IL-2R beta and IL-2R gamma attached (Acrobiosystems Cat. no: ACRB-ILG-H₈₂F3-25UG). Receptors were reconstituted from lyophilized powder to 500 μg/ml in PBS. Analytes were diluted in Kinetic buffer to 300 nM, then serially diluted to lower concentrations.

For experiment [3], the target named is T2, Avi-tag Fc with human IL-2R beta and IL-2R gamma attached (Acrobiosystems ACRB-ILG-H82F3-25UG) (human, UniProt P14784 27-239; P31785 23-262).
T2 construct: Bought; attached to the SAX2 biosensor; also called CD122 CD132; IL-2R βγ; not shown: Fc and Avi-tag
T2 sequence (looked up) 1: T1 sequence (looked up)
T2 sequence (looked up) 2: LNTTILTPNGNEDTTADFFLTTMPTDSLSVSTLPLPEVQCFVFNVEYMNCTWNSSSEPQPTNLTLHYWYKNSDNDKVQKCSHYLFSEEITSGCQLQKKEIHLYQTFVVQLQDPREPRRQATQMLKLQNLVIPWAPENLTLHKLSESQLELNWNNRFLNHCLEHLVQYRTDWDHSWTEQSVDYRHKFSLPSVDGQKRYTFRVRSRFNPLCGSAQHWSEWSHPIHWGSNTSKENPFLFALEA
Described as above. The protocol:
as §2, §3

Experiment [4] addresses T2, Avi-tag Fc with human IL-2R beta and …. Kind of experiment: BLI (Octet R8), receptor on SAX2 sensor. Put shortly: as §1
Experiment [5] addresses T1, recombinant human IL-2 receptor beta …. Kind of experiment: BLI (Octet R8), receptor on SAX2 sensor; construct CMP-168, intact (no MMP2). The protocol:
as §2, §3

The target is the same in experiment [6]. Kind of experiment: BLI (Octet R8), receptor on SAX2 sensor; CMP-168 treated with MMP2 (cleaved). On the procedure: as §2, §3
The target is the same in experiment [7]. Description: BLI (Octet R8), receptor on SAX2 sensor; CMP-167 treated with MMP2 (cleaved). The protocol: as §2, §3
Experiment [8] deals with T2, Avi-tag Fc with human IL-2R beta and …. Described as above. The protocol: as §2, §3
Experiment [9] has as its target T1, recombinant human IL-2 receptor beta …. Kind of experiment: BLI (Octet R8), receptor on SAX2 sensor; CMP-166 treated with MMP2 (cleaved). On the procedure: as §2, §3
Experiment [10] deals with T2, Avi-tag Fc with human IL-2R beta and …. Described as above. The protocol: as §2, §3
Experiment [11] has as its target T1, recombinant human IL-2 receptor beta …. Kind of experiment: BLI (Octet R8), receptor on SAX2 sensor; construct CMP-166, intact (no MMP2). On the procedure: as §2, §3
Experiment [12] deals with T2, Avi-tag Fc with human IL-2R beta and …. The experiment is described as above. On the procedure:
as §2, §3

Experiment [13] has as its target T1, recombinant human IL-2 receptor beta …. Kind of experiment: BLI (Octet R8), receptor on SAX2 sensor; CMP-165 treated with MMP2 (cleaved). The protocol:
as §2, §3

Experiment [14] addresses T2, Avi-tag Fc with human IL-2R beta and …. The experiment is described as above. On the procedure:
as §2, §3

Experiment [15] addresses T1, recombinant human IL-2 receptor beta …. Kind of experiment: BLI (Octet R8), receptor on SAX2 sensor; construct CMP-165, intact (no MMP2). The protocol: as §2, §3
Experiment [16] concerns the target T2, Avi-tag Fc with human IL-2R beta and …. The description is as above. On the procedure: as §2, §3

Bridges are numbered along the chain shown (N, C = ends). Primed or numbered codes have the meaning given here. [ ]: non-standard residue; d: D form. Ygp = O-(8x polyethylene glycol-amino)-tyrosine (Tyr, amino-capped PEG8); Yn3 = O-(9x polyethylene glycol-azido)-tyrosine (Tyr, azide-capped PEG9); Ygp″ = O-(8x polyethylene glycol-amino)-tyrosine; Yn3″ = O-(9x polyethylene glycol-azido)-tyrosine; hSer = N[C@@H](CCO)C(=O)O; Nle = CCCC[C@H](N)C(=O)O

B1: CMP-167 (ligand)
chain: APTSSSTKKTQLQLEHLLLDLQKILNGINNYKNPKLTR[Nle]L[hSer][Yn3]KF[Ygp][Nle]PKKATELKHLQCLEEELKPLEEVL[hSer]LAQSKNFHLRPRDLISNINVIVLELKGSETTF[hSer]CEYADETATIVEFLNRWITFSQSIISTLT
modifications: bridge N-23; not fully specified (bridges); ends not checked
Consider B1, for which, in experiment [1], the off-rate constant (koff) (in general, the first-order rate constant of dissociation) worked out at 0.993 s⁻¹. Moreover, the Kd (usually the equilibrium constant for the complex coming apart) in experiment [2] is 0.215 µM; in [3], 0.0238 µM.

B2: CMP-168 (ligand)
chain: APTSSSTKKTQLQLEHLLLDLQEILNGINNYKNPKLTR[Nle]L[hSer][Yn3″]KF[Ygp″][Nle]PKKATELKHLQCLEEELKPLEEVL[hSer]LAQSKNFHLRPRDLISNINVIVLELKGSETTF[hSer]CEYADETATIVEFLNRWITFSQSIISTLT
modifications: bridge 9-23; not fully specified (bridges); ends not checked
B2 yielded an off-rate constant (koff) in experiment [4] of 0.0022 s⁻¹. The Kd in experiment [5] was 25.1 µM.

B3: CMP-168, MMP2 cleaved (ligand)
chain: APTSSSTKKTQLQLEHLLLDLQEILNGINNYKNPKLTR[Nle]L[hSer][Yn3″]KF[Ygp″][Nle]PKKATELKHLQCLEEELKPLEEVL[hSer]LAQSKNFHLRPRDLISNINVIVLELKGSETTF[hSer]CEYADETATIVEFLNRWITFSQSIISTLT
modifications: ends and bridges not checked; also: MMP2 cleaved, ring opened, cut site and remnants not given here
notes: Tested after MMP2 treatment
As for B3, the off-rate constant (koff) in [1] worked out at 1.08 s⁻¹; in [4], 0.00164 s⁻¹. Further, the kon – broadly, the rate constant with which the complex forms – turned out to be 789 M⁻¹ s⁻¹ in [1] and 602000 M⁻¹ s⁻¹ in experiment [4]. Moreover, the Kd amounted to 0.00227 µM in experiment [4] and 1370 µM in experiment [6].

B4: CMP-167, MMP2 cleaved (ligand)
chain: APTSSSTKKTQLQLEHLLLDLQKILNGINNYKNPKLTR[Nle]L[hSer][Yn3″]KF[Ygp″][Nle]PKKATELKHLQCLEEELKPLEEVL[hSer]LAQSKNFHLRPRDLISNINVIVLELKGSETTF[hSer]CEYADETATIVEFLNRWITFSQSIISTLT
modifications: ends and bridges not checked; also: MMP2 cleaved, ring opened, cut site and remnants not given here
notes: Tested after MMP2 treatment
For the molecule B4, the results for the off-rate constant (koff) in experiment [1] and in experiment [4] were 0.227 s⁻¹ and 0.000923 s⁻¹, respectively. Also, the association rate constant (kon) in [1] was determined as 345000 M⁻¹ s⁻¹; in experiment [4] it was 594000 M⁻¹ s⁻¹. Moreover, the values for the Kd in experiment [7] and in [8] were 0.658 µM and 0.00155 µM, respectively.

B5: CMP-166, MMP2 cleaved (ligand)
chain: APTSSSTKKTQLQLEHLLLDLQKILNGINNYKNPKLTR[Nle]L[hSer][Yn3]KF[Ygp][Nle]PKKATELKHLQCLEEELKPLEEVL[hSer]LAQSKNFHLRPRDLISNINVIVLELKGSETTF[hSer]CEYADETATIVEFLNRWITFSQSIISTLT
modifications: also: glutaryl-PEG4-peptide bridge Ala1 to Lys23 cut by MMP2, site not given here, ring opened
notes: Tested after MMP2 treatment
Turning to B5, the koff in experiment [1] amounted to 0.225 s⁻¹; in experiment [4], 0.000684 s⁻¹. Besides, the figures for the kon in [1] and in [4] were 283000 M⁻¹ s⁻¹ and 567000 M⁻¹ s⁻¹, respectively. Moreover, the dissociation constant (Kd) stood at 0.794 µM in [9] and 0.00121 µM in experiment [10].

B6: CMP-166 (ligand)
chain: APTSSSTKKTQLQLEHLLLDLQKILNGINNYKNPKLTR[Nle]L[hSer][Yn3]KF[Ygp][Nle]PKKATELKHLQCLEEELKPLEEVL[hSer]LAQSKNFHLRPRDLISNINVIVLELKGSETTF[hSer]CEYADETATIVEFLNRWITFSQSIISTLT
modifications: bridge N-23; not fully specified (bridges); ends not checked; also: sequence of the cleavable peptide in the bridge not given here
Turning to B6, the dissociation rate constant (koff) in experiment [1] worked out at 0.613 s⁻¹. The Kd in [11] was 0.614 µM; in experiment [12], 0.0161 µM.

B7: CMP-165, MMP2 cleaved (ligand)
chain: APTSSSTKKTQLQLEHLLLDLQKILNGINNYKNPKLTR[Nle]L[hSer][Yn3]KF[Ygp][Nle]PKKATELKHLQCLEEELKPLEEVL[hSer]LAQSKNFHLRPRDLISNINVIVLELKGSETTF[hSer]CEYADETATIVEFLNRWITFSQSIISTLT
modifications: also: glutaryl-peptide bridge Ala1 to Lys23 cut by MMP2, site not given here, ring opened
notes: Tested after MMP2 treatment
For B7, the koff was found to be 0.237 s⁻¹ in experiment [1] and 0.00114 s⁻¹ in [4]. Also, the association rate constant (kon) in experiment [1] was found to be 213000 M⁻¹ s⁻¹; in [4], 608000 M⁻¹ s⁻¹. The Kd in [13] was determined as 1.11 µM; in experiment [14] it was 0.00187 µM.

B8: CMP-165 (ligand)
chain: APTSSSTKKTQLQLEHLLLDLQKILNGINNYKNPKLTR[Nle]L[hSer][Yn3]KF[Ygp][Nle]PKKATELKHLQCLEEELKPLEEVL[hSer]LAQSKNFHLRPRDLISNINVIVLELKGSETTF[hSer]CEYADETATIVEFLNRWITFSQSIISTLT
modifications: bridge N-23; not fully specified (bridges); ends not checked; also: sequence of the cleavable peptide in the bridge not given here
With B8, in experiment [1], the koff amounted to 0.633 s⁻¹. The Kd came out at 44.2 µM in [15] and 0.0261 nM in experiment [16].

The values above are taken from US20240376170A1 (BRIGHT PEAK THERAPEUTICS, published 2024).
